Sequences and labels used below:
B1: TPR 5TU (parent)
chain: GGAUCUUCUCGAUCUAACAAAAAAGACAAAUCUGCCACAAAGCUUGAGAGCAUCUUCGGAUGCAGAGGCGGCAGCCUUCGGUGGCGCGAUAGCGCCAACGUUCUCAACUAUGACACGCAAAACGCGUGCUCCGUUGAAUGGAGUUUAUCAUG

Variants at the floor of the assay were thinned out.

In this data set the parent is B1. Put plainly: polymerase ribozyme fitness, log enrichment relative to wild type (log ratio); higher = more active; in vitro selection for triplet polymerase activity. The method, boiled down: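 PCR was used to build mutant libraries for each subunit of a heterodimeric triplet polymerase ribozyme, which were then transcribed. A single in vitro selection round, in triplicate, used a frozen incubation at −7 °C and recovered extended constructs by gel excision, streptavidin beads and RT-PCR. Fitness is the logarithm of genotype enrichment relative to wild-type enrichment, averaged over replicates with inverse-variance weights. The logarithm is base 2, and after Illumina sequencing only genotypes with ≥10 input reads and ≥1 read per output were kept.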
GGAUCUUCUCGAUCUAACAAAAAAGACAAAUCUGCCACAAAGCUUGAGAGCAUCUUCGGAUGCAGAGGCGGCAGCCUUCGGCGGCGCGAUAGCGCCAACGUUCUCAACUAUGACGCGCAAAACGCGUGCUCCGUUGAAUGGAGUUUAUCAUG [U82C A115G]: the “polymerase ribozyme fitness (log ratio)” value is -0.965. Consider GGAUCUUCUCGAUCUAACAAAAAAGACAGAUCUGCCACAAAGCUUGAGAGCAUCUUCGGAUGCAGAGGCGGCAGCCUUCGGUGGCGCGAUAGCGCCAACGUUGGCAACUAUGACACGCAAAACGCGUGCUCCGUUGAAUGGAGUUUAUCAUG [A29G C103G U104G], for which the “polymerase ribozyme fitness (log ratio)” value was ≤ -4.2. Under GGAUCUUCUCGAUCUAACAAAAAAGACAAAUCUGCCACAAAGCUUGCGAGCAACUUCGGAUGCAGAGGCGGCAGCCUUCGGUGGCGCGAUAGCGUCAACGUUCUCAACUAUGACACGCAAAACGCGUGCUCCGUUCAAUGGAGUUUAUCAUG [A47C U53A C95U G136C] stands -3.62; under GGAUCUUCUCGAUCUAACAAAAAAGACAAAUCUGCCACAAAGCUUGAGAGCAGCUUCGGAUGCAGAGGCGGCAGCCUUCGGUGGCGCGAUAGUGCCAACGUUCUCAACUAUGACACGCAAAACGCGUGCUCCGUUGAAUGGAGUUUAUCAUG [U53G C93U], -1.92. Then GGAUCUUCUCGAUCUAACAAAAAAGACAAAUCUGCCACAAAGCUUGAGAGCAUCUUUGGAUGCAGAGGCGGCAGCCUUCGGUAGCGCGAUAGCGCCAAAGUUCUCAACUAUGACACGCAAAACGCGUGCUCCGUUGAAUGGAGUUUAUCAUG [C57U G83A C99A], with -2.32; and GGAUCUUCUCGAUCUAACAAAGAAGACAAAUCUGUCACAAAGCUUGAGAGCAUCUUCGGAUGCAGAGGCGGCAGCCUUCGGUGGCGCGAUAGGGCCAACGUUCUCAACUAUGACACGCAAAACGCGUGCUCCGUUGAAUGGCGUUUAUCGUG [A22G C35U C93G A142C A150G], with ≤ -4.2.

Take GGUUCGUCUCGAUCUAACAAAAAAGACAAAUCUGGCACAAAGCUUGAGAUCAUCUUCGGAUGCAGAGGCGGCAGCCUGUGGUGGCGCGAUAGCGCCAACGUUCUCAACUAUGACACGCAAAACGCGUGCUCCGUUGAAUGUAGUUUAUCAUG [A3U U6G C35G G50U U78G C79U G141U]: the “polymerase ribozyme fitness (log ratio)” value is ≤ -4.2. Regarding GGAUUUUCUGGAUCUAACAAAAAAGACAAAUCUGUCACAAAGCUUGAGAGCAUCUUCGGAUGCAGAGGCGGCAGGCUUCGGUGGCGCGAUAGCGCCAACGUGCUCAUCUAUGACACGAAAAACGCGUGCUCCGUUGAAUGGAGUUUAUCAUG [C5U C10G C35U C75G U102G A107U C118A], the “polymerase ribozyme fitness (log ratio)” value was ≤ -4.2.

As for GGAUCUUCUCGAUCUAACAAAAAAGACAAAUCUGCCGCAAAGCUUGAGAGCAUCUUCGGAUGCAGAAGCGGCAGCCUUGGGUGGCGCGAUAGCGCCAACGUUCUCAACUAUGACACGCAAAACGCGUGCUCCGUUGAAUGGAGUUUAUCAUG [A37G G67A C79G], the “polymerase ribozyme fitness (log ratio)” value was ≤ -4.2. As to GGAUCUUCUCGAUCUAACAAAAAAGACAAAUCUGCCACAAAGCUUGAGAGCAUCUUCGGAUGCAGAGGCGGCAGCCUUCGGUGGCGCGAUAGCCCCAACGUUCUCAACUAUGACACGCAAAACGCGUUCUCCGUUGAAUGGAGUUUAUCAUG [G94C G128U], the “polymerase ribozyme fitness (log ratio)” value was -3.18. For GGAUCUUCUCGAUCUAACAAAAAAGACAAAUCUGCCACAAAGCUUGCGAGCAUCUCCGGAUGCAGAGACGGCAGCCUUCGGUGGCGCGAUAGCGCCAACGUUCUCAACUAUGACACGCAAAACGUGUGCUCCGUUGAAUGGAGUUUAUCAUG [A47C U56C G68A C125U], the “polymerase ribozyme fitness (log ratio)” value was -4.09. In the case of GGAUCUUCUCGAUCUAACAAAAAAGACAAAUCUGCCACAAAGCUUGAGAGCAUCUUCGGAUGCAGAGGCGGCAGCCUUCGGUGGCGCGAUAGCGCAAACGUUCUCAACUAUGACAUGCAAAACGCGUGCUCCGUUGAAUGGAGUUUAUCAUG [C96A C116U], the “polymerase ribozyme fitness (log ratio)” value is -0.662. Then GGAUCUUCUCGAUCUAACAAAAAAGACCAAUCUGCCACUAAGCUUGACAGCAUCUUCGGAUGCAGAGGCAGCAGCCUUCGGUGCCGCGAUAGGGCCAACGUUCUCAACUAUGACACGCAAAACGCGUGCUCCGUUGAAUUGAGUUUAUCAUG [A28C A39U G48C G70A G84C C93G G140U], with ≤ -4.2.

Regarding GGAUCUUCUCGAUUUAACAAAAAAGACAAAUCUGCCACAAAGCUUGAGAGCAUCUUCGGAUGCAGAGGCGGCAGCCUUCGGUGGCGUGAUAGCGCCAAUGUUCUCAACUAUGACACGCAAAACAUGUGCUCCGUUGAAUGGAGUUUAUCAUG [C14U C87U C99U G124A C125U], the “polymerase ribozyme fitness (log ratio)” value is -2.54.

With GGAUCUUCUCGGUCUAACAAAAAAGACAAAUCUGCCACAAAGCUUGAGAGCAUCUUCGGAUGCAGAGGCGGCAGCCUUCGGUGGCGAGAUAGCGCCAACGUUCUCAACUAUGACACGCAAAACGCGUGCUCCGUUGAAUGGAGUUUAUCAUG [A12G C87A], the “polymerase ribozyme fitness (log ratio)” value was ≤ -4.2.

With GGAUCUUCUCGAUCUAACAAAAAAGACAAACCUGCCACAAAGCUUGAGAGCAUCUUCGGAUGCAGAGGCGGCAGCCUUCGGUGGCGCGAUAGUGCCAACGUUCUCAACUAUGACACGCAGAACGCGUGCUCCGUUGAAUGGAGUUUAUCAUG [U31C C93U A120G], the “polymerase ribozyme fitness (log ratio)” value was 0.174. Then GGAUCUUCUCGAUCUAACAAAAAAGACAAAUCUGCCACAAAGCUUGAGAUCAUCUUCGGAUGCAGAGGCGGCAGCCUUCGGUGGCGUGAUAGCGCCAACGUUCUCAACUAUGAAACGCAAAACGCGUGCUCCGUUGAAUGGAGUUUAUCAUG [G50U C87U C114A], with -3.78. Take GGAUCUUCUCGAUCUAACAAAAAAGACAAAUCUGCCACAAAGCUUGAGAGCAACUUCGGAAGCAGAGGCGGCAGCCUUCGGUGGUGCGAUAGCGCCUACGUUCUCAAUUAUGACACGCAAAACGCGUGCUCCGUUGAAUGGAGUUUAUCAUG [U53A U61A C85U A97U C108U]: the “polymerase ribozyme fitness (log ratio)” value is ≤ -4.2.

With GGAUCUUCUCGAUCUAACAAAAAAGACAAAUCUGCCACAAAGCUUGAGAGCUUCUUCGGAUGCAGAGGCGGCAGCCUUCGGUGGCGCGAUAGCGCUAACAUUCUCAACUAUGACACGCAAAACGCGUGCUCCGUUGAAUGGAGUUUCUCAUG [A52U C96U G100A A147C], the “polymerase ribozyme fitness (log ratio)” value is ≤ -4.2.
